According to patent EP3926342A1:

Key:
[1] = target: human rhinovirus strain RV2 (minor group RV-A), purified virus (human rhinovirus) (UniProt P04936); experiment: fluid phase competition ELISA: RV2 (5 µg/ml as printed here) pre-incubated with 50 µg/ml soluble LDLR, then added to plate-bound LDLR
[2] = target: recombinant human ICAM-1/CD54 (R&D Systems) (human) (UniProt P05362)
[3] = target: biotinylated RV89 (human rhinovirus) (UniProt P07210)
[4] = target: human rhinovirus strain RV89 (major group RV-A), purified virus (human rhinovirus) (UniProt P07210); experiment: fluid phase competition ELISA: RV89 (25 µg/ml) pre-incubated with 50 µg/ml soluble ICAM-1, then added to plate-bound ICAM-1
Sequence of human rhinovirus strain RV89 (major group RV-A), purified virus (human rhinovirus) (P07210 2-866): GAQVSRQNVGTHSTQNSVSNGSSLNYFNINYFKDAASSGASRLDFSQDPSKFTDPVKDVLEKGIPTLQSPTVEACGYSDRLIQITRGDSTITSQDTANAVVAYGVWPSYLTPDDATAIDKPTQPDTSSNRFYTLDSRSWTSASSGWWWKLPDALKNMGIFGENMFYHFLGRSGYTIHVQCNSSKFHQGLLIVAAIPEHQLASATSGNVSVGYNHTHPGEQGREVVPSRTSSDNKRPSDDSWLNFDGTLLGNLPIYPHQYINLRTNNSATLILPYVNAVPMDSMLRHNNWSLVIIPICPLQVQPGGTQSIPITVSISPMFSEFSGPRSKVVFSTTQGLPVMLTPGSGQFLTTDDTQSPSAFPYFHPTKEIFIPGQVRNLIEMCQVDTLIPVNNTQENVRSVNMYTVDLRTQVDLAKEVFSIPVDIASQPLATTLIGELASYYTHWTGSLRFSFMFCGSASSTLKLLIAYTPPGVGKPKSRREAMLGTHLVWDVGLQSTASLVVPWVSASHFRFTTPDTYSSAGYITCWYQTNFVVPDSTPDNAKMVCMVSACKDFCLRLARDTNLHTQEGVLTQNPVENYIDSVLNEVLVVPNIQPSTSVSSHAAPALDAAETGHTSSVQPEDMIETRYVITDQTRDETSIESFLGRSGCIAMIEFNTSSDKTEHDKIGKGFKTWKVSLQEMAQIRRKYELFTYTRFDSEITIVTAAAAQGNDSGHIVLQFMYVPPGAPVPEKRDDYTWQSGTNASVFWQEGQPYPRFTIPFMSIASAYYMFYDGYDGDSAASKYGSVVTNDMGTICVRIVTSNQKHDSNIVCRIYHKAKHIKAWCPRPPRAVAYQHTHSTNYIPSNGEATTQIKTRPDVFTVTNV

Sequence of recombinant human ICAM-1/CD54 (R&D Systems) (human) (P05362 28-480 limits assumed): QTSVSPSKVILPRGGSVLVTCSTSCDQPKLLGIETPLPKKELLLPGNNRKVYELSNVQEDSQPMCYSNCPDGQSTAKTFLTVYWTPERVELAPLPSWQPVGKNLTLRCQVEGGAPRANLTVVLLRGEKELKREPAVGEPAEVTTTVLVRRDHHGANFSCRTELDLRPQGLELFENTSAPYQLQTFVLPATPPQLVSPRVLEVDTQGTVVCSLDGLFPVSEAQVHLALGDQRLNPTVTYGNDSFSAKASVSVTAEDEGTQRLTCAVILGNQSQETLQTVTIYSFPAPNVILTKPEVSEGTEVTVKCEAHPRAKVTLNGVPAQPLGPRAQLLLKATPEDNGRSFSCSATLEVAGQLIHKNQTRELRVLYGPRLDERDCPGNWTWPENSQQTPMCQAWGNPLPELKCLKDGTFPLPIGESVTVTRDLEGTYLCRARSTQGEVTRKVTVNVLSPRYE
Sequence of recombinant human ICAM-1/CD54 (R&D Systems) (P05362 28-480 limits assumed): as above
Sequence of biotinylated RV89 (human rhinovirus) (P07210 2-866): as the sequence (P07210 2-866) above
Sequence of human rhinovirus strain RV2 (minor group RV-A), purified virus (human rhinovirus) (P04936 2-850): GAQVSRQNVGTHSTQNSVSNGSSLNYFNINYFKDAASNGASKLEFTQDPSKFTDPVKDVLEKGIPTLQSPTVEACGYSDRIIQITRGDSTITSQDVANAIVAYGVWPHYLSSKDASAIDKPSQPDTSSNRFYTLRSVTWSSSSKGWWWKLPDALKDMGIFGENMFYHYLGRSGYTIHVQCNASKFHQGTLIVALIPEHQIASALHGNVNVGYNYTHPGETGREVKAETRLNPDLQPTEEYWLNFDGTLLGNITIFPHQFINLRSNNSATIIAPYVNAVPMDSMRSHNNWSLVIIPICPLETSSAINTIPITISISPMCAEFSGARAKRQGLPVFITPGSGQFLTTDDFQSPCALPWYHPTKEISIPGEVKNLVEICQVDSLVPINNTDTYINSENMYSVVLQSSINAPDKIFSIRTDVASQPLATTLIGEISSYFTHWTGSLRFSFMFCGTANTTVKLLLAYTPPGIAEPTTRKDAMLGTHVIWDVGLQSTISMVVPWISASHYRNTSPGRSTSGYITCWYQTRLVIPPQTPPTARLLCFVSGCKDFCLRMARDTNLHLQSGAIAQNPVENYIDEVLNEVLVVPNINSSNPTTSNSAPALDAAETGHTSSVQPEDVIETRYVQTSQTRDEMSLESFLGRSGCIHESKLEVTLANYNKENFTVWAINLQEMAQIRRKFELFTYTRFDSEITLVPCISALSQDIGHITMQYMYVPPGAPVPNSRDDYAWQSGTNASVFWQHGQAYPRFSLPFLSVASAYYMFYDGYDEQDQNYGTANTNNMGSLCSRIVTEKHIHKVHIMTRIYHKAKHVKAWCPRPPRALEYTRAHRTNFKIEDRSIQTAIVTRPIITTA

Substance: recombinant human LDLR (R&D Systems) (from UniProt P01130 22-788) (receptor)
- percent inhibition of RV2 binding to plate-bound LDLR [1]: > 60%

Substance: human rhinovirus strain RV89 (major group RV-A), purified virus (from UniProt P07210 2-866)
- lowest virus concentration at which binding to ICAM-1 was detected [2]: 6.25 µg/mL

Substance: biotinylated RV89 (from UniProt P07210 2-866)
- lowest virus concentration at which binding to ICAM-1 was detected [2]: 6.25 µg/mL

Substance: ultrasensitive Streptavidin-Peroxidase Polymer (Merck) (from UniProt P22629 37-163)
- lowest coated concentration of biotinylated RV89 that was detected [3]: 0.625 µg/mL

Substance: recombinant human ICAM-1/CD54 (R&D Systems) (from UniProt P05362 28-480) (receptor)
- percent inhibition of RV89 binding to plate-bound ICAM-1 [4]: > 95%
